B1: TPR t1 (parent)
chain: GACCAAUCUGCCCUCAGAGCUCGAGAACAUCUUCGGAUGCAGAGGAGGCAGGCUUCGGUGGCGCGAUAGCGCCAACGUCCUCAACCUCCAAUGCAUCCCACCACAUGAUGAUGCCUGAAGAGCCUUGGUUUUUUG

Variants of: B1
Experiment: polymerase ribozyme fitness, log enrichment relative to wild type (log ratio); higher = more active; in vitro selection for triplet polymerase activity
Outline: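 Mutant libraries of each subunit of a heterodimeric triplet polymerase ribozyme were built by PCR and transcribed. Each library went through one round of in vitro selection in triplicate: annealing with biotinylated primer, partner subunit and triplets, frozen incubation at −7 °C, gel excision of extended constructs, streptavidin-bead capture and RT-PCR. Input and output libraries were Illumina-sequenced; only genotypes with ≥10 input reads and ≥1 read per output were kept. Fitness is log2(genotype enrichment/wild-type enrichment), using inverse-variance-weighted replicate averages.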

Variant | polymerase ribozyme fitness (log ratio)
G63C A84G | -1.73
G65A U87G | -5.9
C64U C73U | 0.562
G63U C114A U125A | -4.22
C62G A100C | -3.47
C64U C72U | -0.106
C62A C89A | -3.57
C62U A84G C101A C123U | -1.03
C62A C99U C124A | -4.32
C62U C70U U133A | 0.14
C62U C72G C94A | -3.29
C62G G110C | -6.06
A66U C70U C88G | -2.66
G63A A74U | -3.72
C64U A118G U129G | -1.07
G63U C86G A90U C104A G110U | -6.48
G63C A75U U87A | -0.774
G63U U78A | -0.683
C62G U92A | -5.63
C62U C85U C123A | -1.23
G63U G128U | -2.6
C64A C86A U112G | -6.59
C62U C85A | -2.09
G63A C115U A119C | -5.84

Variant | polymerase ribozyme fitness (log ratio)
C62U U106A G120U C124G | 1.54
G63C C86U U112A | 0.23
C62U C70A C94G | -3.73
C64U G113A | -1.32
C62G A95G U132C | -1.55
G61U U92C | -1.84
G63U C89U A90G U112A C123G | 0.558
G63C U87A U130C G135U | -1.49
C62U C101A | -0.746
C62U C101G | -1.35
C62A G120A U133A | -0.165
C62U G63U C101U G135A | -2.36
C64U C104A G120A | -0.809
C64A C88G G110U | -6.03
G65C C101U | -4.71
C62G U106A | -1.16
G63A G113C U133A | -4.26
C64A C89A G117C G135U | -5.9
G63A G93U G110A | -4.5
C62U U106G A121U G122U | -1.15
C62A G128A | -2.62
G63U C85G G113A | -2.68
C62A C82A A121G | 1.58
G63C C124A | 0.234

Variant | polymerase ribozyme fitness (log ratio)
G63C U81G | -4.28
G63U A74U | -4.43
C62U G113C G127C | -3.6
C62A A91G | -2.78
C62A C72G | -2.09
C62A C72U | -1.74
C62U C98G G117C G128A U133C | -5.87
A68G C73G C82U | -5.21
G61U U78C G113C U130G | -2.86
A68G C114A | -3.39
C62U A66U C73G C104U U112C | -1.37
C62U G93C | -1.8
G63U C85A G128A | -4.29
G63A C89A C115G | -4.92
C62U C98A | -5.51
G63C C114A | -2.44
G63C C114U | -2.19
C62U C115U | -1.22
G63C U81G G120A | -3.19
G63A U87A | -1.03
C62A C82G G117A | -3.75
G63C G117A | -1.45
G63A C104A U132A G135U | -3.28
G61U U81A C82U A119G G122U U125A U129C | -1.8

Variant | polymerase ribozyme fitness (log ratio)
G63C C98U | -2.15
G63U C123U | -0.374
G63A C79A G93U | -4.19
C64U C101A G110C | -7.07
G61U U78C U116A | -2.17
C64U C123A | -0.0204
C62A A121U | 1.32
C62U U81G A83U C89U G117U | -5.98
A66G C101A C104A U112A C114U | -5.6
G63A A119U G135U | -1.7
A66G G117C C124U U132A | -6.03
C62U U78C C82G A84C G93A C123U U129G | -1.05
U67C C82G A119G | -5.87
C64G U81A G120C | -6.58
G63U C82U G127C | -1.96
G63A G120U | -0.702
G63C C86A A118G | -2.3
G63A U112A G122C | -1.55
C62U G65U | -3.73
G63C C123A G127A G135C | -0.151
G63U U129C | -1.11
C64U U109A | -4.01
C62A C82A | -0.246
G63U C97U C98U G113A A118G U134G | -3.87

Variant | polymerase ribozyme fitness (log ratio)
C62A A118C | -2.96
G63C U78G C98U | -2.14
C64U C89G A91U C97U C115U | -2.63
G63C A121G | 0.727
G63C A121C | 0.84
C64U C104G U109A | -6.28
G63A G113C | -2.53
C62G U78G C88G | -3.52
C62A U130G U133A | -1.17
C62U U116C | -1.06
C62U G71C U131G | -0.416
C64U C124G | 1.78
A68G C80A | -6.54
C64U C97U | -1.3
C62U U81C C101U | -0.199
G61U G127C | -0.698
G65C G69U C114G G117C C124U G128C | -5.15
G63U C99U | -4.73
G63C C97A G120C U126A | -6.28
C64U U130C | -0.0426
C64U C80U | 0.0248
C62U G63C | -2.14
C64U C79U C85A A105G | -5.05
C62G C115U G122U | -5.8

Variant | polymerase ribozyme fitness (log ratio)
C64U C73U G117C | -3.17
U67G | -7.14
U67C | -2.8
U67A | -5.73
G63A C79A G128C | -4.78
G63U A108G | -3.13
C64U U96C U132A | -0.407
C64U C104A | -1.31
C62U U133A | -0.403
G63C C104U | -0.59
C62U C104A | -1.29
G63U C73A A84U C86U A100G A111C | -6.77
C62G U78A U106A | -1.75
G63A A105G C124G | -2.8
C64U G117U | -1.28
C62G C89U A111C U126C U129C | -4.44
G63A A119U | -1.29
G63A C124G | 0.684
G63A C124A | 0.45
G63U U92G G122A | -5.14
G63A G113U G127C | -4.93
G61U U130G | -0.614
C64U C88U C97U | -0.745
C64G C70A G93A C101A G120A G127A U131G | -6.32

Variant | polymerase ribozyme fitness (log ratio)
C62A U112A C123G | -1.31
C62A G77A | -2.78
C62A G77U | -1.77
A66U C73G | -1.75
C62A G117C U133A | -5.95
G63U U78G U81A A118U U129C | -4.83
C62A C82U A91G C101G C123U G128U | -3.86
C64U C82G C88U U131G | -0.778
G63C G93A | -1.12
G63U U92G G93C C98G A121G | -5.9
C62G C123A | -1.01
C62U C97G A121U | -2.46
G63U C114A U133A | -3.35
C62G C86A | -3.17
C62U U130G | -1.41
G63A C82A | -2.53
A66C A105U A108G C124A | -7.55
C64U A95G G117C | -4.22
G63C G110U | -2.57
G63A U132A | -0.756
C62U U129A | -1.09
G61U U106C | 0.11
C64U C82U U106G | -1.27
